In patent US20050106653A1:
Each block holds one molecule with its values, some of them ahead of it.

Tests used:
[1] = molecular target: regulatory p85α subunit of bovine PI 3-kinase (bovine) (UniProt P23727); assay: SPR competition: 100 nM p85α with soluble peptide over the same peptide immobilised
[2] = molecular target: regulatory p85α subunit of bovine PI 3-kinase (bovine) (UniProt P23727); assay: SPR (Biacore) competition: 100 nM p85α preincubated with soluble peptide, injected over the same peptide immobilised; two site competition fit, first value
[3] = molecular target: regulatory p85α subunit of bovine PI 3-kinase (bovine) (UniProt P23727); assay: SPR (Biacore) competition: 100 nM p85α preincubated with soluble peptide, injected over the same peptide immobilised; two site competition fit, second value
[4] = molecular target: GST fusion protein containing amino acids 449-664 of rat IRS-1 (rIRS-1 449-664), no PKC pretreatment (rat) (UniProt P35570); assay: cell-based or functional assay
[5] = molecular target: rIRS-1 449-664 GST fusion protein preincubated with PKC from rat brain (PKC-rb), then tyrosine phosphorylated by insulin receptor (rat) (UniProt P35570); assay: cell-based or functional assay
[6] = molecular target: rIRS-1 449-664 GST fusion protein preincubated with PKC-ζ, then tyrosine phosphorylated by insulin receptor (rat) (UniProt P35570); assay: cell-based or functional assay
[7] = molecular target: rIRS-1 449-664 S570A GST fusion protein preincubated with PKC-ζ, then tyrosine phosphorylated by insulin receptor (rat) (UniProt P35570); assay: cell-based or functional assay
[8] = molecular target: rIRS-1 449-664 S612A GST fusion protein preincubated with PKC-ζ, then tyrosine phosphorylated by insulin receptor (rat) (UniProt P35570); assay: cell-based or functional assay
[9] = molecular target: rIRS-1 449-664 S570A GST fusion protein preincubated with PKC-ζ, then tyrosine phosphorylated by insulin receptor (rat) (UniProt P35570); assay: GST pull-down and immunoblot; against the insulin-stimulated control without PKC-ζ set as 100%
[10] = molecular target: rIRS-1 449-664 S612A GST fusion protein preincubated with PKC-ζ, then tyrosine phosphorylated by insulin receptor (rat) (UniProt P35570); assay: as above
[11] = molecular target: rIRS-1 449-664 GST fusion protein preincubated with PKC from rat brain (PKC-rb), then tyrosine phosphorylated by insulin receptor (rat) (UniProt P35570); assay: GST pull-down and immunoblot; against insulin-stimulated rIRS-1 449-664 without PKC set as 100%
[12] = molecular target: rIRS-1 449-664 GST fusion protein preincubated with PKC-ζ, then tyrosine phosphorylated by insulin receptor (rat) (UniProt P35570); assay: GST pull-down and immunoblot; against insulin-stimulated rIRS-1 449-664 without PKC-ζ set as 100%
[13] = molecular target: T1, GST fusion protein containing amino acids 449-664 of rat IRS-1 (rIRS-1 449-664), no PKC pretreatment
T1 chain: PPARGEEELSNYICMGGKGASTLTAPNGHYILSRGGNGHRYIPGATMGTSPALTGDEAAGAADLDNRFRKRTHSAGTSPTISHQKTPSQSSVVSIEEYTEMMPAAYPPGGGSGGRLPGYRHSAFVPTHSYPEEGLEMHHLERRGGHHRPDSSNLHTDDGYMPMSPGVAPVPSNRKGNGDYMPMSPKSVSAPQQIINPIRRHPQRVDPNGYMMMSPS

regulatory p85α subunit of bovine PI 3-kinase (bovine), sequence (P23727 whole entry, the tested form may be a part): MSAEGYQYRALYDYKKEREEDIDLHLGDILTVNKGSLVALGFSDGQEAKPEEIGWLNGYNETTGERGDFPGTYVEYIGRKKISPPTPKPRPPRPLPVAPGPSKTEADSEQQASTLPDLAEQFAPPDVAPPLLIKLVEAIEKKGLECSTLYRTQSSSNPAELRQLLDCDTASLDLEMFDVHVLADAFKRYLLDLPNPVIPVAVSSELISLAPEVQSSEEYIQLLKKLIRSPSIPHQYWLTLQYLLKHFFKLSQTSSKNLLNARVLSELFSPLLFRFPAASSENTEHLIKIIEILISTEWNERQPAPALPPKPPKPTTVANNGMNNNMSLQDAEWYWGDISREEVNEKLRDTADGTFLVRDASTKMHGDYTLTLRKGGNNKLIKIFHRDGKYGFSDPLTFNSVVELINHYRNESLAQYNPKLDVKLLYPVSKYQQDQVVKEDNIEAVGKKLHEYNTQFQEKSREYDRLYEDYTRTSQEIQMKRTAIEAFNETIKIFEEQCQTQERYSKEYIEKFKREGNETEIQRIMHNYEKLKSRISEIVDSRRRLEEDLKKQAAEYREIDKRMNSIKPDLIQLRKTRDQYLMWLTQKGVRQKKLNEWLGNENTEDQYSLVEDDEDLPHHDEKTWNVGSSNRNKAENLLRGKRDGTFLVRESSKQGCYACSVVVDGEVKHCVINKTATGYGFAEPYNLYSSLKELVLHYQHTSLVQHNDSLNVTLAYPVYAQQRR

peptide concentration for complete inhibition [1]: 10 µM
IC50 [2]: 150 nM
IC50 [3]: 2880 nM
Molecule: IRS-1 peptide pY608-pS612 (DDGpYMPMpSPGV), amino acids 605 to 615 of rat IRS-1 with phosphotyrosine 608 and phosphoserine 612

insulin-stimulated tyrosine phosphorylation of rIRS-1^449-664, fold over basal [4]: 8.8 fold
reduction of insulin-stimulated tyrosine phosphorylation [5]: 27%
inhibition of tyrosine phosphorylation [6]: 46%
reduction of tyrosine phosphorylation by IR after PKC-ζ pretreatment [6]: 30 to 40%
reduction of tyrosine phosphorylation by IR after PKC-ζ pretreatment [7]: 30 to 40%
reduction of tyrosine phosphorylation by IR after PKC-ζ pretreatment [8]: 30 to 40%
Molecule: insulin receptor, WGA-purified from rat liver, insulin-stimulated and autophosphorylated (from UniProt P15127 27-1383)

The next lines start with the molecule.

Molecule: IRS-1 peptide pY608 (DDGpYMPMSPGV), amino acids 605 to 615 of rat IRS-1 with phosphotyrosine 608
peptide concentration for complete inhibition [1]: 10 µM
IC50 [2]: 260 nM
IC50 [3]: 16600 nM

Molecule: regulatory p85α subunit of bovine PI 3-kinase (from UniProt P23727 1-724)
p85α binding, % of control [9]: 43 % of control
p85α binding, % of control [10]: 28 % of control
inhibition of the association of p85α [11]: 49%
inhibition of p85α binding [12]: 81%

B1: recombinant human protein kinase C-ζ (protein)
chain: MPSRTGPKMEGSGGRVRLKAHYGGDIFITSVDAATTFEELCEEVRDMCRLHQQHPLTLKWVDSEGDPCTVSSQMELEEAFRLARQCRDEGLIIHVFPSTPEQPGLPCPGEDKSIYRRGARRWRKLYRANGHLFQAKRFNRRAYCGQCSERIWGLARQGYRCINCKLLVHKRCHGLVPLTCRKHMDSVMPSQEPPVDDKNEDADLPSEETDGIAYISSSRKHDSIKDDSEDLKPVIDGMDGIKISQGLGLQDFDLIRVIGRGSYAKVLLVRLKKNDQIYAMKVVKKELVHDDEDIDWVQTEKHVFEQASSNPFLVGLHSCFQTTSRLFLVIEYVNGGDLMFHMQRQRKLPEEHARFYAAEICIALNFLHERGIIYRDLKLDNVLLDADGHIKLTDYGMCKEGLGPGDTTSTFCGTPNYIAPEILRGEEYGFSVDWWALGVLMFEMMAGRSPFDIITDNPDMNTEDYLFQVILEKPIRIPRFLSVKASHVLKGFLNKDPKERLGCRPQTGFSDIKSHAFFRSIDWDLLEKKQALPPFQPQITDDYGLDNFDTQFTSEPVQLTPDDEDAIKRIDQSEFEGFEYINPLLLSTEESV
32P incorporation, SDS-PAGE and autoradiography [13]: a prominent phosphorylation of rIRS-1^449-664 by PKC became detectable
phosphopeptide mapping by HPLC of wild type and S570A [13]: serine 570 of IRS-1 is a novel phosphorylation site targeted by PKC-ζ
